According to patent US20060234944A1, “Beta-secretase inhibitors and methods of use” (Oklahoma Medical Reseach Foundation, priority 2001, published 2006):
Where no end group is shown, it is not given here. [ ]: non-standard residue; d: D form. FAM = 5-(and 6-)carboxyfluorescein; Ahx = NCCCCCC(=O)O

B1: CPI-3: (ELDL*AVEF)-GG-(…) (peptide)
peptide: ELDLAVEFGG[dR][dR][dR][dR][dR][dR][dR][dR][dR]
modifications: also: hydroxyethylene isostere between Leu4 and Ala5
B2: CPI-2: FAM-Ahx-(ELDL*AVEF)-GG-(…) (peptide)
peptide: {FAM-Ahx}-ELDLAVEFGG[dR][dR][dR][dR][dR][dR][dR][dR][dR]
modifications: numbers in words are those of the source; also: hydroxyethylene isostere between Leu5 and Ala6

Molecular target: memapsin 2 (spontaneously activated promemapsin 2-T1; amino acids 43-456 and 45-456 of SEQ ID NO: 8) (human) (UniProt P56817)
Sequence (P56817 41-454): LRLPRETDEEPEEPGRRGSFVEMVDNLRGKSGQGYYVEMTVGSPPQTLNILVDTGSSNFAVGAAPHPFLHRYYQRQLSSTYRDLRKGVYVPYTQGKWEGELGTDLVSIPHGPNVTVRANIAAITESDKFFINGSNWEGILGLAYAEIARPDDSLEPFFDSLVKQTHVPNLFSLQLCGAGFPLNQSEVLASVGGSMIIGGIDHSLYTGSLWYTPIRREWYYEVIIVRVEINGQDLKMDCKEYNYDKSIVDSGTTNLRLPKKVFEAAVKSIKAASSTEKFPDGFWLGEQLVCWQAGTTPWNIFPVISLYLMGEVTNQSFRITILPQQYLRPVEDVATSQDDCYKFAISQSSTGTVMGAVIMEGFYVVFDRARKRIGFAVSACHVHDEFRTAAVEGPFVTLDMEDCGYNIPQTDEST
Assay: kinetic inhibition experiment (procedure of Ermolieff et al.)

Binder	Ki	Ki apparent
B1	35 nM	
B2		58 nM
